Data as given in patent publication US8399213B2, “Method for monitoring intracellular tyrosine phosphatase activity” (University of Southern California, priority 2008, dated 2013).
Square brackets hold non-standard residues; d marks the D form. Ends that are not written are not given here. Ala(7-OPO3H2-coumarin-4-yl) = N[C@@H](Cc1cc(=O)oc2cc(OP(=O)(O)O)ccc12)C(=O)O

Assays:
YOP = YOP (Yersinia enterocolitica, UniProt P15273); conditions: excitation at 340 nm and emission at 460 nm; cited from earlier work
YOP, sequence (P15273 whole entry): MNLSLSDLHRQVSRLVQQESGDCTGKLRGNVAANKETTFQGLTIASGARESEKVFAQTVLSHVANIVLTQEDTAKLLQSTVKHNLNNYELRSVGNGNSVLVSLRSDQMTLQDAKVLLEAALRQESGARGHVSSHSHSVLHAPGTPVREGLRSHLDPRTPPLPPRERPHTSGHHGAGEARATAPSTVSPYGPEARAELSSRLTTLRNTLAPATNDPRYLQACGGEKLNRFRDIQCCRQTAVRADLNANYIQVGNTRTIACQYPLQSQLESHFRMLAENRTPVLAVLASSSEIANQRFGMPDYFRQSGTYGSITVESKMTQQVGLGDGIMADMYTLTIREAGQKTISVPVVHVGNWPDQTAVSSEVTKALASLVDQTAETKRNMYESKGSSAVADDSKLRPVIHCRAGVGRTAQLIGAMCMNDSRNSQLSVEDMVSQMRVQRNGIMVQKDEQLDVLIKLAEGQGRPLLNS

T cell PTP (TCPTP) = target: T1, T cell PTP (TCPTP) (Homo sapiens, UniProt P17706); conditions: cited from earlier work
T1 sequence (P17706 1-415): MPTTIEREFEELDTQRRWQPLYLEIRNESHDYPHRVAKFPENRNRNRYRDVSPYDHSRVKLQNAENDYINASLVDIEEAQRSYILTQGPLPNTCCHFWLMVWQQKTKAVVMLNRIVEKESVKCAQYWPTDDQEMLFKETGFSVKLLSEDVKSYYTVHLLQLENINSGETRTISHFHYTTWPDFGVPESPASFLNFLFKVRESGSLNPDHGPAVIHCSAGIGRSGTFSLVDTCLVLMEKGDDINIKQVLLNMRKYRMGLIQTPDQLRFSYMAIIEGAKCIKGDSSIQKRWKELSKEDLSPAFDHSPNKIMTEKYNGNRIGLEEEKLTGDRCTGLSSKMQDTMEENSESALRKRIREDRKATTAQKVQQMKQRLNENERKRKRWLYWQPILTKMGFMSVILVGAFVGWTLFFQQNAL

[1] = system: intracellular PTPs in JTAg cells; test: Intracellular dephosphorylation of nucleofected pCAP peptide, flow cytometry; type: cell-based, human; conditions: preincubated with 10 mM vanadate; 100 μM 9LckpCAP394 peptide; 1′ after nucleofection
Method: FIG. 3. Dephosphorylation of pCAP peptide by intracellular PTPs after nucleofection. (A) Time-course of intracellular dephosphorylation of nucleofected 9Lck394 CAP-based peptides. JTAg human T cells were nucleofected in the presence of 100 μM pCAP peptide (blue lines), 100 μM CAP peptide (red lines) or 100 μM of a non-hydrolyzable Et2pCAP peptide (green lines). Cell fluorescence was measured using a BD LSR-II with a DAPI filter at 30″ (dotted lines) and 1′ (continuous lines). […] (B) Fluorescence of non-nucleofected JTAg cells incubated in the presence of the CAP-based peptides used for the experiment in panel (A). Graphs show fluorescence of non-nucleofected cells incubated with 100 μM pCAP peptide (dashed blue line), 100 μM CAP peptide (dashed red line) or 100 μM of a non-hydrolyzable Et2pCAP peptide (dashed green line). Data from panel (A) and (B) are representative of the same experiment. […] JTAg cells were nucleofected in the presence of 100 μM 9LckpCAP394 peptide and cell fluorescence was measured at 1′ (pink line), 2.5′ (purple line), 5′ (light blue line), and 10′ (dark blue line). […]
FIG. 4. […] Dashed red and blue lines show fluorescence of non-nucleofected cells incubated with pCAP peptide (blue dashed line) or CAP peptide (red dashed line), and vanadate.
FIG. 5. […] The fluorescence of cells was assessed at 1′ (black lines) or 15′ (yellow lines) after fixation. […]

Jurkat TAg (JTAg) cells = test: Cellular uptake of cell-permeable CAP peptides, flow cytometry; type: cell-based; conditions: JTAg T cells treated with lipid-R7 peptides
Method: FIG. 6. […] Cells were incubated for 1 hour with RPMI with 0.5% FBS with DMSO alone or containing 12.5 μM of Ant-CAP or R8-CAP. The fluorescence (Y axis) versus forward scatter (X axis) of 10,000 cells gated as live T cells on the forward versus side scatter plot is shown. The percentage (%) of positive (showing fluorescence over the control level) cells is shown in each panel.
The inventors have shown that pCAP peptides are dephosphorylated by PTPs, but are not recognized by serine/threonine phosphatases, which makes them particularly suitable as probes to detect intracellular PTP activity (FIG. 1). […] The amount of enzyme used was normalized to be the same activity on DiFMUP. […] To determine if these peptides are suitable substrates for cell-based screening of PTP inhibitors, the inventors further assessed dephosphorylation in microinjected cells. Using fluorescence microscopy, intracellular dephosphorylation of the microinjected peptides was observed as recognized by an increase in fluorescence over time and was inhibited by a known PTP inhibitor (FIG. 2). […] Human Jurkat TAg (JTAg) cells with CAP-ANT and CAP-R8 peptides were incubated and analyzed by flow cytometry. […]
Cells are added to wells of a plate at a concentration of up to 10 million/mL. […] Cells can be analyzed with any flow cytometry system equipped with appropriate excitation and emission filters.

[2] = system: T2, 9LckpCAP394 peptide (EDNE-pCAP-TARE)
T2 sequence: EDNEXTARE

PTPN22 = target: T3, PTPN22 (Homo sapiens, UniProt Q9Y2R2); test: Dephosphorylation of pCAP peptide by PTPN22; type: biochemical
T3 sequence (Q9Y2R2 1-807): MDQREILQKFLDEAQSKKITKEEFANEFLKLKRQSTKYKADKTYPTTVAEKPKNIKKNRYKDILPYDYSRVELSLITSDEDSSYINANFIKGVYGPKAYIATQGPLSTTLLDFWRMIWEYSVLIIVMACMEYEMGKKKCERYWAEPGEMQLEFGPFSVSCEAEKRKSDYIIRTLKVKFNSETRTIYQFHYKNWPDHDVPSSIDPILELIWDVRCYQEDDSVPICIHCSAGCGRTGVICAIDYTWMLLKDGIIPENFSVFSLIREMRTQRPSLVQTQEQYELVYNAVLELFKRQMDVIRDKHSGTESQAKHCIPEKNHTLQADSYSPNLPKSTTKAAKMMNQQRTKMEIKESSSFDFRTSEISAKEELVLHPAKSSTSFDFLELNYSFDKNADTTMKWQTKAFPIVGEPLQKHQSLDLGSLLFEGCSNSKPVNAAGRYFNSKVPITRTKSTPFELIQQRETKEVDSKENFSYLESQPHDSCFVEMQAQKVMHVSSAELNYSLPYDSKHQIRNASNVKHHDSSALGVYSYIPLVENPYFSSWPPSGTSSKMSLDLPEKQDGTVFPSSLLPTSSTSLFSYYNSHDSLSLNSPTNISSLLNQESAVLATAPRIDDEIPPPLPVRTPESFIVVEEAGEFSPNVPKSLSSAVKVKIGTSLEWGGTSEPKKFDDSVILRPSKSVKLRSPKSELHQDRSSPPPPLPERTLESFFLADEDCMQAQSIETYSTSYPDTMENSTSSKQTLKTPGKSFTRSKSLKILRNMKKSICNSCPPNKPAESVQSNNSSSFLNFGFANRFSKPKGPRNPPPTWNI
Method: (§1) (A) Structure of CAP, pCAP, and Et2-pCAP, a non-hydrolyzable form of pCAP. (B) Kinetic parameters of dephosphorylation of 9LckpCAP394 peptide by PTPN22. (C) Time-course of dephosphorylation of 0.2 mM 9LckpCAP394 peptide by PP1 (filled triangles), PP2A (open squares), or PP2B (filled squares). Linear regression is also shown. The activity of the enzymes was normalized using difluoromethylumbelliferone phosphate (DiFMUP) as substrate and equal units were used for all the assays on pCAP peptide. Open diamonds and dashed line show representative activity of all enzymes on 0.2 mM DiFMUP.
(§2) The amount of enzyme used was normalized to be the same activity on DiFMUP. […] To determine if these peptides are suitable substrates for cell-based screening of PTP inhibitors, the inventors further assessed dephosphorylation in microinjected cells. […] In principle, any FACS system equipped with the appropriate excitation and emission filters could be used. […] Human Jurkat TAg (JTAg) cells with CAP-ANT and CAP-R8 peptides were incubated and analyzed by flow cytometry.

[3] = system: serine-threonine phosphatases (PP1, PP2A, PP2B); test: Dephosphorylation of pCAP peptide by serine-threonine phosphatases, plate reader time-course; type: biochemical; conditions: 0.2 mM peptide; optimal buffer for each enzyme; enzyme amount normalized to same activity on DiFMUP
Method: as §1, §2

[4] = target: T4, 9LckpCAP394 peptide (EDNE-pCAP-TARE)
T4 chain: EDNEXTARE

DADE-pCAP-GPAA-NH2 (DADEXGPAX; pCAP residue, C-terminal amide; artificial YOP substrate) [peptide 1, pCAP-containing peptide, artificial YOP substrate]
fluorescence change on dephosphorylation by YOP (YOP): linear increase in fluorescence | turnover by human PTPs including TCPTP (T cell PTP (TCPTP)): efficiently turned over

[O]=[V]([O-])([O-])[O-] [Vanadate, vanadate]
inhibition of dephosphorylation of pCAP peptide in nucleofected JTAg cells [1]: inhibits the dephosphorylation

C16-betaAla-R7-CAP
efficacy of internalization compared to non-lipidic tags (Jurkat TAg (JTAg) cells): substantially increase efficacy of internalization

PP1
hydrolysis (dephosphorylation) of 0.2 mM pCAP peptide over time, fluorescence excitation 340 nm / emission 460 nm [2]: The serine-threonine phosphatases were ineffective at hydrolysis of this peptide

PP2A
hydrolysis (dephosphorylation) of 0.2 mM pCAP peptide over time, fluorescence excitation 340 nm / emission 460 nm [2]: The serine-threonine phosphatases were ineffective at hydrolysis of this peptide

PP2B
hydrolysis (dephosphorylation) of 0.2 mM pCAP peptide over time, fluorescence excitation 340 nm / emission 460 nm [2]: The serine-threonine phosphatases were ineffective at hydrolysis of this peptide

C14-betaAla-R7-CAP
efficacy of internalization compared to non-lipidic tags (Jurkat TAg (JTAg) cells): substantially increase efficacy of internalization

EDNE-pCAP-TARE (EDNE[Ala(7-OPO3H2-coumarin-4-yl)]TARE) [9Lck394p CAP, pCAP peptide, artificial PTPN22 substrate]
hydrolysis by PTPN22 (PTPN22): efficiently hydrolyzed | hydrolysis by serine-threonine phosphatases [3]: ineffective at hydrolysis

B1: PTPN22 (protein)
chain: MDQREILQKFLDEAQSKKITKEEFANEFLKLKRQSTKYKADKTYPTTVAEKPKNIKKNRYKDILPYDYSRVELSLITSDEDSSYINANFIKGVYGPKAYIATQGPLSTTLLDFWRMIWEYSVLIIVMACMEYEMGKKKCERYWAEPGEMQLEFGPFSVSCEAEKRKSDYIIRTLKVKFNSETRTIYQFHYKNWPDHDVPSSIDPILELIWDVRCYQEDDSVPICIHCSAGCGRTGVICAIDYTWMLLKDGIIPENFSVFSLIREMRTQRPSLVQTQEQYELVYNAVLELFKRQM
hydrolysis (dephosphorylation) of pCAP peptide, fluorescence excitation 340 nm / emission 460 nm [4]: efficiently hydrolyzed by PTPN22
